26 molecules from patent US20180086804A1 (COMMISSARIAT A L ENERGIE ATOMIQUE ET AUX ENERGIES …, published 2018) can be followed below.

Assay [1] addresses T1, HLA-DRB5 (HLA-DRB5*01:01) (human).
T1 construct: mature; purified from homozygous EBV-transformed lymphoblastoid cells with antibody L243
In words: competition ELISA vs biotin-HA 306-318.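 Also: HLA and competitor incubated 24 to 72 h, maximal signal taken from wells lacking competitor, background from wells lacking HLA molecule.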 On the technique in general: In an ELISA, binding on a coated surface is turned into a signal by an enzyme label.

The next assay deals with T2, HLA-DR1 (HLA-DRB1*01:01) (human).
T2 construct: mature; class II HLA molecule purified from homozygous EBV-transformed lymphoblastoid cells with antibody L243
In words: competition ELISA vs biotin-HA 306-318.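 Also: HLA and competitor incubated 24 to 72 h, maximal signal taken from wells lacking competitor, background from wells lacking HLA molecule.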

The target in another assay is T3, HLA-DR4 (HLA-DRB1*04:01) (human).
T3 construct: mature; purified from homozygous EBV-transformed lymphoblastoid cells with antibody L243
Nature of the assay: competition ELISA vs biotin-HA 306-318.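 Also: HLA and competitor incubated 24 to 72 h, maximal signal taken from wells lacking competitor, background from wells lacking HLA molecule.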

The target of assay [2] is T4, HLA-DR11 (HLA-DRB1*11:01) (human).
T4 construct: mature; purified from homozygous EBV-transformed lymphoblastoid cells with antibody L243
In words: competition ELISA vs biotin-HA 306-318.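 Also: HLA and competitor incubated 24 to 72 h, maximal signal taken from wells lacking competitor, background from wells lacking HLA molecule.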

For assay [3], the target named is T5, HLA-DR13 (HLA-DRB1*13:01) (human).
T5 construct: mature; purified from homozygous EBV-transformed lymphoblastoid cells with antibody L243
Nature of the assay: competition ELISA vs biotin-B1 21-36.

A further assay has as its target T6, HLA-DR3 (HLA-DRB1*03:01) (human).
T6 construct: mature; purified from homozygous EBV-transformed lymphoblastoid cells with antibody L243
Nature of the assay: competition ELISA vs biotin-MT 2-16.

Assay [4] deals with T7, HLA-DR15 (HLA-DRB1*15:01) (human).
T7 construct: mature; purified from homozygous EBV-transformed lymphoblastoid cells with antibody L243
In words: competition ELISA vs biotin-A3 152-166.

The target of the next assay is T8, HLA-DR7 (HLA-DRB1*07:01) (human).
T8 construct: mature; purified from homozygous EBV-transformed lymphoblastoid cells with antibody L243
In words: competition ELISA vs biotin-YKL.

No end group written: not given here.

Take DRFMQNNCVPKKMLQ-NH2 [CCNB1 231-245]: the relative affinity came to 1580 in assay [1], 11 with HLA-DR1 (HLA-DRB1*01:01), 52 in the assay with HLA-DR4 (HLA-DRB1*04:01) and 2000 in assay [2].
EPVKEEKLSPEPILV-NH2 [CCNB1 108-122] gave a relative affinity in the assay with HLA-DR1 (HLA-DRB1*01:01) of 894.
For the molecule QAVRPKYLLGREVTG-NH2 [CCNB1 185-199], the relative affinity was found to be 4 in assay [3]; 1670 in assay [1]; 59 with HLA-DR1 (HLA-DRB1*01:01); 260 with HLA-DR4 (HLA-DRB1*04:01); 22 in assay [2].
Turning to PKYLLGREVTGNMRA-NH2 [CCNB1 189-203], the relative affinity amounted to 17 with HLA-DR1 (HLA-DRB1*01:01), 34 in the assay with HLA-DR4 (HLA-DRB1*04:01), 3 in assay [2] and 764 with HLA-DR3 (HLA-DRB1*03:01).
As to SDVILAVNDVDAEDG-NH2 [CCNB1 147-161], the relative affinity in assay [4] was found to be 7; with HLA-DR4 (HLA-DRB1*04:01) it was 54.
On to TGKVIDKKLPKPLEK-NH2 [CCNB1 71-85], for which the results for the relative affinity (in assay [1]; with HLA-DR3 (HLA-DRB1*03:01)) were 250 and 228, respectively.
Take NKVSEQLQAKMPMKK-NH2 [CCNB1 50-64]: the relative affinity was 258 in assay [3], 51 in assay [1] and 1550 in assay [2].
For the molecule SKINAENKAKINMAG-NH2 [CCNB1 9-23], the relative affinity in assay [3] is 146; in assay [1], 1000; in assay [2], 490; in the assay with HLA-DR3 (HLA-DRB1*03:01), 22.
On to PGLRPRTALGDIGNK-NH2 [CCNB1 37-51], for which the relative affinity in assay [3] is 422.
As to KPLEKVPMLVPVPVS-NH2 [CCNB1 81-95], the figures for the relative affinity in the assay with HLA-DR1 (HLA-DRB1*01:01) and with HLA-DR4 (HLA-DRB1*04:01) were 524 and 500, respectively.
For the molecule AKMPMKKEAKPSATG-NH2 [CCNB1 58-72], the relative affinity was 683 in assay [3] and 40 in assay [2].
Take GAFCLALKILDNGEW-NH2 [CCNB1 347-361]: the relative affinity was 1 in assay [4] and 9 in assay [2].
In the case of KHMTVKNKYATSKHA-NH2 [CCNB1 396-410], the relative affinity was 9 in assay [3]; 533 in the assay with HLA-DR7 (HLA-DRB1*07:01); 229 in assay [4]; 7480 with HLA-DR1 (HLA-DRB1*01:01); 408 with HLA-DR4 (HLA-DRB1*04:01); 7 in assay [2].
SPMETSGCAPAEEDL-NH2 [CCNB1 128-142]: in the assay with HLA-DR1 (HLA-DRB1*01:01), the relative affinity is 3590.
In the case of TALGDIGNKVSEQLQ-NH2 [CCNB1 43-57], the relative affinity was found to be 1790 in assay [3] and 300 in assay [4].
With RALNFGLGRPLPLHF-NH2 [CCNB1 291-305], the relative affinity came to 3 with HLA-DR7 (HLA-DRB1*07:01); 65 in assay [4]; 4 in assay [1]; 1 in the assay with HLA-DR1 (HLA-DRB1*01:01); 1410 with HLA-DR4 (HLA-DRB1*04:01); 1000 in assay [2].
As for EQLQAKMPMKKEAKP-NH2 [CCNB1 54-68], the relative affinity worked out at 808 in the assay with HLA-DR7 (HLA-DRB1*07:01), 35 in assay [1], 3740 with HLA-DR1 (HLA-DRB1*01:01) and 1410 in assay [2].
Consider NKYATSKHAKISTLP-NH2 [CCNB1 402-416], for which the relative affinity in the assay with HLA-DR7 (HLA-DRB1*07:01) is 9; in assay [1], 1730; in the assay with HLA-DR1 (HLA-DRB1*01:01) it was 367; with HLA-DR4 (HLA-DRB1*04:01), 707; in assay [2], 4.
For RQLEEEQAVRPKYLL-NH2 [CCNB1 179-193], the relative affinity in assay [3] was determined as 943; with HLA-DR7 (HLA-DRB1*07:01) it was 271; in assay [1], 2160; in the assay with HLA-DR1 (HLA-DRB1*01:01), 9000.
Take GEWTPTLQHYLSYTE-NH2 [CCNB1 359-373]: the relative affinity with HLA-DR7 (HLA-DRB1*07:01) is 0.4; in assay [4], 0.2; in assay [1] it was 224; in the assay with HLA-DR1 (HLA-DRB1*01:01), 548; with HLA-DR4 (HLA-DRB1*04:01), 500; in assay [2], 22.
SKIGEVDVEQHTLAK-NH2 [CCNB1 310-324]: the relative affinity in assay [3] worked out at 1800; in assay [1] it was 1500; in assay [2] it was 190; with HLA-DR3 (HLA-DRB1*03:01), 306.
In the case of EDLCQAFSDVILAVN-NH2 [CCNB1 140-154], the figures for the relative affinity (in assay [4]; with HLA-DR4 (HLA-DRB1*04:01); with HLA-DR3 (HLA-DRB1*03:01)) were 207, 1110 and 161, respectively.
Consider KDIYAYLRQLEEEQA-NH2 [CCNB1 172-186], for which the relative affinity in assay [3] worked out at 5; with HLA-DR7 (HLA-DRB1*07:01), 1600; in assay [4], 11; in assay [1], 775; in the assay with HLA-DR1 (HLA-DRB1*01:01), 42; in assay [2], 1. The relative affinity with HLA-DR3 (HLA-DRB1*03:01) is 33.
In the assay with HLA-DR4 (HLA-DRB1*04:01), LAVNDVDAEDGADPN-NH2 [CCNB1 151-165] had a relative affinity of 667.
In the case of LDYDMVHFPPSQIAA-NH2 [CCNB1 332-346], the relative affinity stood at 20 with HLA-DR7 (HLA-DRB1*07:01); 36 in assay [4]; 1580 in assay [1]; 224 in the assay with HLA-DR1 (HLA-DRB1*01:01); 289 with HLA-DR4 (HLA-DRB1*04:01); 511 in assay [2].
In the case of QGLTKHMTVKNKYAT-NH2 [CCNB1 392-406], the relative affinity was determined as 7 in assay [3]; 533 with HLA-DR7 (HLA-DRB1*07:01); 47 in assay [1]; 577 with HLA-DR4 (HLA-DRB1*04:01); 693 in assay [2]; 408 in the assay with HLA-DR3 (HLA-DRB1*03:01).
